Test results from patent US12060424 (AMUNIX PHARMACEUTICALS, dated 2024).

T1: human EpCAM expressed on cells (CHO cells stably transfected with human EpCAM); EpCAM-positive human tumor … (human, UniProt P16422 24-314)
T1 construct: whole, on cells; also called EpCAM-CHO; hEp-CHO 4-12B
T1 sequence (looked up): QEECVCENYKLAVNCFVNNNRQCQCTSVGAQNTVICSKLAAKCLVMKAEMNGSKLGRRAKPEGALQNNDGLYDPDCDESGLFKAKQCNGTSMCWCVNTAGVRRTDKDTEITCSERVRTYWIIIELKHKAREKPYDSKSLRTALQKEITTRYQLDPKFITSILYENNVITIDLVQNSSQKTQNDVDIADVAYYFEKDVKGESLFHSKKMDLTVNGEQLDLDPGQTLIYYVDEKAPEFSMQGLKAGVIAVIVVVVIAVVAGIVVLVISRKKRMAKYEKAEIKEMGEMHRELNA

T2: Fc-tagged EpCAM (R&D Systems, cat #960-EP-050), human, coupled to SPR chip (human, UniProt P16422 24-265)
T2 construct: Bought reagent; also called human EpCAM; EpCAM chip; not shown: Fc tag of the bought reagent
T2 sequence (looked up): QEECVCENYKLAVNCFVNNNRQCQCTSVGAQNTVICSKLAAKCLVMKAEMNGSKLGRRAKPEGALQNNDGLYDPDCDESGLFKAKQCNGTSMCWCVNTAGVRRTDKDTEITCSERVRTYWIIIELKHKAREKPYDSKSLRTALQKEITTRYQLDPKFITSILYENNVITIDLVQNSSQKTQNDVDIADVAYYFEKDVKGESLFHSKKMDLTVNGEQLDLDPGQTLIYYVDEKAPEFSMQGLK

T3: recombinant human EpCAM (rhEpCAM), coated on ELISA plate (human, UniProt P16422 24-265)
T3 construct: Bought reagent
T3 sequence (looked up): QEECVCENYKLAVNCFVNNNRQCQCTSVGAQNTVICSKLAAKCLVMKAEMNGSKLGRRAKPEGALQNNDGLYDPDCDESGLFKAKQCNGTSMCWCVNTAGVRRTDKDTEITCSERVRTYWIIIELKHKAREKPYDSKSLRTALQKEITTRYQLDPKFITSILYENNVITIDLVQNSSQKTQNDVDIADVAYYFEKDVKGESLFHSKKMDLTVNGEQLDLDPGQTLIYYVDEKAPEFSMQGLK

T4: recombinant human CEA (Abcam cat #ab742), coated on ELISA plate (human, UniProt P06731 35-685, limits assumed)
T4 construct: also called CEA antigen
T4 sequence (looked up): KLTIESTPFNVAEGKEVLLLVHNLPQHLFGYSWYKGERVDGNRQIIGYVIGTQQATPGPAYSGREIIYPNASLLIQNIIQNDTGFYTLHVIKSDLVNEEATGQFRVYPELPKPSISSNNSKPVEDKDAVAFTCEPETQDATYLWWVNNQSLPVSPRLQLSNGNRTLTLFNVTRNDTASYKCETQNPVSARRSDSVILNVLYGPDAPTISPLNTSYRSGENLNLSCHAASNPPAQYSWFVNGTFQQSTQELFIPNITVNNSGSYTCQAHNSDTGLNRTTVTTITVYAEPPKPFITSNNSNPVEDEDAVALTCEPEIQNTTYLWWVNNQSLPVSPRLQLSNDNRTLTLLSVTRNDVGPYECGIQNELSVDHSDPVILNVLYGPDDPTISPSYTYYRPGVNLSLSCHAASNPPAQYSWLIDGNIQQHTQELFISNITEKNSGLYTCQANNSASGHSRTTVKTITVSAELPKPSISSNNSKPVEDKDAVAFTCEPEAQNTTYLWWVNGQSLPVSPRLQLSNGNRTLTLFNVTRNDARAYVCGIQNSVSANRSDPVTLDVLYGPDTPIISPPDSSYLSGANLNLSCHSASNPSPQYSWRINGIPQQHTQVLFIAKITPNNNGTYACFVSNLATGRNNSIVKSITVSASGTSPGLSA


Key:
[1] = biological target: T5, human CD3 on cells (CD3+ Jurkat cells; purified human CD3 positive T cells) (human, UniProt P07766 23-207); experiment: competition flow cytometry on Jurkat cells
T5 construct: whole, on cells; CD3 is a multi-subunit complex
T5 sequence (P07766 23-207): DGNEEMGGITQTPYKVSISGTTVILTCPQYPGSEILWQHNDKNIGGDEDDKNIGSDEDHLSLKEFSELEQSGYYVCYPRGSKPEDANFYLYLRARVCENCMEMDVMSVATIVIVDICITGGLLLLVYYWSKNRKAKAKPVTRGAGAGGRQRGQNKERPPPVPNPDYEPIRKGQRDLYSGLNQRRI

[2] = biological target: T1, human EpCAM expressed on cells (CHO …); experiment: competition flow cytometry on hEp-CHO 4-12B cells
[3] = biological target: T5, human CD3 on cells (CD3+ Jurkat cells; …); experiment: cell-based or functional assay
[4] = biological target: T2, Fc-tagged EpCAM (R&D Systems, cat …); experiment: SPR
[5] = biological target: T6, recombinant human HER2 (AcroBiosystems cat #HE2-H525), coated on ELISA plate (human, UniProt P04626 23-652); experiment: sandwich ELISA: recombinant human HER2 coated, biotin-conjugated protein L detection
T6 construct: also called HER2 antigen

[6] = biological target: T5, human CD3 on cells (CD3+ Jurkat cells; …); experiment: competition flow cytometry on CD3+ Jurkat cells
[7] = biological target: recombinant human CD3 epsilon & delta (rhCD3ε & δ), Creative BioMart cat #CD3E&CD3D-219H (human) (UniProt P07766); experiment: sandwich ELISA: rhCD3ε & δ coated, peroxidase-conjugated protein L detection
recombinant human CD3 epsilon & delta (rhCD3ε & δ), Creative BioMart cat #CD3E&CD3D-219H (human), sequence (P07766 23-126, stated change not applied, chain 1 of 2): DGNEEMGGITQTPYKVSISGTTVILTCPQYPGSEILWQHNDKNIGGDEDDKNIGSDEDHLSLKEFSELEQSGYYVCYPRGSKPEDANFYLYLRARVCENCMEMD
recombinant human CD3 epsilon & delta (rhCD3ε & δ), Creative BioMart cat #CD3E&CD3D-219H (human), sequence (P04234 22-105, stated change not applied, chain 2 of 2, further chain): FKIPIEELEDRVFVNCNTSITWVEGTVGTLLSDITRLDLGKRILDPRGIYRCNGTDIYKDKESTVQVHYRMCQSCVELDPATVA

[8] = biological target: recombinant human CD3 epsilon & delta (rhCD3ε & δ), Creative BioMart cat #CD3E&CD3D-219H (human) (UniProt P07766); experiment: SPR
[9] = biological target: T1, human EpCAM expressed on cells (CHO …); experiment: competition flow cytometry on EpCAM-CHO cells
[10] = biological target: T3, recombinant human EpCAM (rhEpCAM), …; experiment: sandwich ELISA: rhEpCAM coated, peroxidase-conjugated protein L detection
[11] = biological target: T4, recombinant human CEA (Abcam cat …); experiment: sandwich ELISA: recombinant human CEA coated, biotin-conjugated protein L detection
[12] = biological target: recombinant human CD3 epsilon & delta (rhCD3ε & δ), Creative BioMart cat #CD3E&CD3D-219H (human) (UniProt P07766); experiment: SPR (Biacore 3000), His-tagged CD3εδ coupled to chip, ProTIA as analyte at 5-6 concentrations
[13] = biological target: T3, recombinant human EpCAM (rhEpCAM), …; experiment: sandwich ELISA: rhEpCAM coated, biotin-conjugated protein L detection
[14] = biological target: T2, Fc-tagged EpCAM (R&D Systems, cat …); experiment: SPR (Biacore 3000), Fc-tagged EpCAM coupled to chip, ProTIA as analyte at 5-6 concentrations

Row | fold weaker binding affinity than cleaved AC1695 [1] [fold] | fold weaker binding affinity than cleaved AC1695 [2] [fold] | fold stronger binding affinity than untreated and non-cleavable ProTIA [4] [fold] | binding result [5] | fold stronger binding affinity than untreated and non-cleavable ProTIA [6] [fold] | EC50 [7] [nM] | fold stronger binding affinity than untreated and non-cleavable ProTIA [8] [fold] | fold stronger binding affinity than untreated and non-cleavable ProTIA [9] [fold] | EC50 [10] [nM] | binding result [11] | Kd [12] [nM] | EC50 [13] [nM] | Kd [14] [nM] | Binder | EC50, LDH release cytotoxicity, purified human CD3 positive T cells with OVCAR-3 cells 5:1 [3] [nM] | EC50, LDH release cytotoxicity, purified human CD3 positive T cells with SK-OV-3 cells 5:1 [3] [nM]
1 | ~30 | ~100 | – | – | – | – | – | – | – | – | – | – | – | AC1886 anti-EpCAM×anti-CD3 ProTIA with two XTEN (XTEN292-RSR3058-anti-EpCAM-anti-CD3 tandem scFv-RSR3058-XTEN_867-6xHIS) (bispecific antibody, Uncleavable release segments RSR-3058; anti-EpCAM 4D5MOCB; hCD3.3) SPAGSPTSTEEGTSESATPESGPGTSTEPSEGSAPGTSESATPESGPGSEPATSGSETPGTSESATPESGPGSEPATSGSETPGTSESATPESGPGTSTEPSEGSAPGSPAGSPTSTEEGTSESATPESGPGSEPATSGSETPGTSESATPESGPGSPAGSPTSTEEGSPAGSPTSTEEGTSTEPSEGSAPGTSESATPESGPGTSESATPESGPGTSESATPESGPGSEPATSGSETPGSEPATSGSETPGSPAGSPTSTEEGTSTEPSEGSAPGTSTEPSEGSAPGGSAPTTGEAGEAAGATSAGATGPATSGSETPGTDIQMTQSPSSLSASVGDRVTITCRSTKSLLHSNGITYLYWYQQKPGKAPKLLIYQMSNLASGVPSRFSSSGSGTDFTLTISSLQPEDFATYYCAQNLEIPRTFGQGTKVEIKGATPPETGAETESPGETTGGSAESEPPGEGQVQLVQSGPGLVQPGGSVRISCAASGYTFTNYGMNWVKQAPGKGLEWMGWINTYTGESTYADSFKGRFTFSLDTSASAAYLQINSLRAEDTAVYYCARFAIKGDYWGQGTLLTVSSGGGGSDIQMTQSPSSLSASVGDRVTITCRASQDIRNYLNWYQQKPGKAPKLLIYYTSRLESGVPSRFSGSGSGTDYTLTISSLQPEDFATYYCQQGNTLPWTFGQGTKVEIKGATPPETGAETESPGETTGGSAESEPPGEGEVQLVESGGGLVQPGGSLRLSCAASGYSFTGYTMNWVRQAPGKGLEWVALINPYKGVSTYNQKFKDRFTISVDKSKNTAYLQMNSLRAEDTAVYYCARSGYYGDSDWYFDVWGQGTLVTVSSGTAEAASASGTTGEAGEAAGATSAGATGPSPGSPAGSPTSTEEGTSESATPESGPGTSTEPSEGSAPGSPAGSPTSTEEGTSTEPSEGSAPGTSTEPSEGSAPGTSESATPESGPGSEPATSGSETPGSEPATSGSETPGSPAGSPTSTEEGTSESATPESGPGTSTEPSEGSAPGTSTEPSEGSAPGSPAGSPTSTEEGTSTEPSEGSAPGTSTEPSEGSAPGTSESATPESGPGTSTEPSEGSAPGTSESATPESGPGSEPATSGSETPGTSTEPSEGSAPGTSTEPSEGSAPGTSESATPESGPGTSESATPESGPGSPAGSPTSTEEGTSESATPESGPGSEPATSGSETPGTSESATPESGPGTSTEPSEGSAPGTSTEPSEGSAPGTSTEPSEGSAPGTSTEPSEGSAPGTSTEPSEGSAPGTSTEPSEGSAPGSPAGSPTSTEEGTSTEPSEGSAPGTSESATPESGPGSEPATSGSETPGTSESATPESGPGSEPATSGSETPGTSESATPESGPGTSTEPSEGSAPGTSESATPESGPGSPAGSPTSTEEGSPAGSPTSTEEGSPAGSPTSTEEGTSESATPESGPGTSTEPSEGSAPGTSESATPESGPGSEPATSGSETPGTSESATPESGPGSEPATSGSETPGTSESATPESGPGTSTEPSEGSAPGSPAGSPTSTEEGTSESATPESGPGSEPATSGSETPGTSESATPESGPGSPAGSPTSTEEGSPAGSPTSTEEGTSTEPSEGSAPGTSESATPESGPGTSESATPESGPGTSESATPESGPGSEPATSGSETPGSEPATSGSETPGSPAGSPTSTEEGTSTEPSEGSAPGTSTEPSEGSAPGSEPATSGSETPGTSESATPESGPGTSTEPSEGSAPGHHHHHH | – | –
2 | – | – | ~10 | no binding | ~30 | 0.31 | 10 | ~10 | 0.12 | no binding | 2.22 | 0.11 | 1.15 | protease-treated (MMP-9 cleaved) AC1476 anti-EpCAM×anti-CD3 ProTIA (bispecific antibody, mass 58,071 Da); also called MMP-9 treated AC1476; MMP-9 treated AC1516) DIQMTQSPSSLSASVGDRVTITCRSTKSLLHSNGITYLYWYQQKPGKAPKLLIYQMSNLASGVPSRFSSSGSGTDFTLTISSLQPEDFATYYCAQNLEIPRTFGQGTKVEIKGATPPETGAETESPGETTGGSAESEPPGEGQVQLVQSGPGLVQPGGSVRISCAASGYTFTNYGMNWVKQAPGKGLEWMGWINTYTGESTYADSFKGRFTFSLDTSASAAYLQINSLRAEDTAVYYCARFAIKGDYWGQGTLLTVSSGGGGSDIQMTQSPSSLSASVGDRVTITCRASQDIRNYLNWYQQKPGKAPKLLIYYTSRLESGVPSRFSGSGSGTDYTLTISSLQPEDFATYYCQQGNTLPWTFGQGTKVEIKGATPPETGAETESPGETTGGSAESEPPGEGEVQLVESGGGLVQPGGSLRLSCAASGYSFTGYTMNWVRQAPGKGLEWVALINPYKGVSTYNQKFKDRFTISVDKSKNTAYLQMNSLRAEDTAVYYCARSGYYGDSDWYFDVWGQGTLVTVSSGTAEAASASGLSGRSDNHSPLG | 0.0003 | 0.0024
